{
  "source": "paper PMC8111780",
  "about": "“NMR structural analysis of the yeast cytochrome c oxidase subunit Cox13 and its interaction with ATP” (BMC Biology, 2021)",
  "molecules": {"B1": {"name": "Cox13 (cytochrome c oxidase subunit Cox13) from S. cerevisiae, refolded in DPC micelles (natural protein)", "chain": "ASSLPPNALKPAFGPPDKVAAQKFKESLMATEKHAKDTSNMWVKISVWVALPAIALTAVNTYFVEKEHAEHREHLKHVPDSEWPRDYEFMNIRSKPFFWGDGDKTLFWNPVVNRHIEHDD", "notes": "Cox13, cytochrome c oxidase subunit of S. cerevisiae; the gene was cloned into pET-28a; predicted mass 15 kDa; residues assigned up to I125; Isotope-labelled (15N and/or 13C) or unlabelled, depending on the experiment; also called Cox13-DPC complex; CoxVIa in mammals (homolog)"}},
  "key": {"[1]": {"target": "Cox13Δ-CytcO: S. cerevisiae cytochrome c oxidase lacking Cox13, with a Flag-tag on Cox6 (S. cerevisiae) (UniProt P00401)", "sequence (P00401 whole entry, looked up, stated change not applied)": "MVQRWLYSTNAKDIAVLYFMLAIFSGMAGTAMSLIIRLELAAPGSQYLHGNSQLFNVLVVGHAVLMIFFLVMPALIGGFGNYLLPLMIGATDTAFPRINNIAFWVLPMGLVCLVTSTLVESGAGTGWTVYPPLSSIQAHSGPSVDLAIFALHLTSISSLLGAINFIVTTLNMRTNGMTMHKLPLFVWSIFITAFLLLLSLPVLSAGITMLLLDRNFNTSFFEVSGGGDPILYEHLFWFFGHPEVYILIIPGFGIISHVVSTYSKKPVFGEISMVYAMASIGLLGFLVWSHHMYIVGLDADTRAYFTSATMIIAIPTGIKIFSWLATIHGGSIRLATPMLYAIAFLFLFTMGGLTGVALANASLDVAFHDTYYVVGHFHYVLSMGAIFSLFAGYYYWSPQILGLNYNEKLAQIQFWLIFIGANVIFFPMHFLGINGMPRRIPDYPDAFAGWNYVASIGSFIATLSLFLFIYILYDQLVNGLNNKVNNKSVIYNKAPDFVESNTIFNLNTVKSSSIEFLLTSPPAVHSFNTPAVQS"}, "[2]": {"target": "wildtype S. cerevisiae cytochrome c oxidase (CytcO, Complex IV) with a 6xHis-tag on Cox13 (S. cerevisiae) (UniProt P00401)", "sequence (P00401 whole entry, looked up, one chain of several)": "as the sequence (P00401 whole entry, looked up, stated change not applied) above"}, "Cox13Δ-CytcO": {"test_system": "T1, Cox13Δ-CytcO", "T1 construct": "gene COX1; Complex IV lacking subunit Cox13, Flag-tag on Cox6, purified from yeast membranes in DDM; ATP site not assigned", "assay": "oxygen consumption (Clark electrode), activity vs ATP", "type": "biochemical, Saccharomyces cerevisiae", "conditions": "tentative fit of stimulation of turnover; yeast cyt. c 50 μM, ascorbate, TMPD, 0.035% DDM, KPi; allosteric, more than one site"}, "Cox13": {"target": "T2, Cox13 (Saccharomyces cerevisiae, UniProt P32799)", "T2 construct": "15 kDa; homodimer", "T2 sequence (P32799 1-129)": "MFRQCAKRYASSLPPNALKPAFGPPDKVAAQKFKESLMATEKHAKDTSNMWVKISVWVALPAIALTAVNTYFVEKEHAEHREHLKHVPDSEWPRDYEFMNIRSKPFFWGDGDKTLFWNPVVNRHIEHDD", "assay": "1H-15N HSQC NMR titration (chemical shift perturbation, global fit)", "type": "binding"}, "[3]": {"target": "the molecule itself", "assay": "SEC; Superdex 200 10/300; 20 mM NaPi pH 6.5, 50 mM L-Arg, 50 mM L-Glu, 1 mM DTT, 3 mM DPC; Cox13-DPC complex elutes in a single peak of apparent mass 55-60 kDa"}},
  "data": [
    {"molecule": "yeast cytochrome c (from UniProt P00044 1-109) (natural protein)", "values": [
      {"measurement": "Km^1 (low Km) for cyt. c, oxygen-consumption turnover of purified Cox13Δ-CytcO against added yeast cyt. c, no ATP", "setting": "[1]", "value": 0.2, "unit": "µM"},
      {"measurement": "Km^2 (high Km) for cyt. c, oxygen-consumption turnover of purified Cox13Δ-CytcO against added yeast cyt. c, no ATP", "setting": "[1]", "value": 20, "unit": "µM"},
      {"measurement": "single Km for cyt. c, oxygen-consumption turnover of purified Cox13Δ-CytcO against added yeast cyt. c, with 5 mM ATP", "setting": "[1]", "value": 5.8, "unit": "µM"},
      {"measurement": "Km^1 (low Km) for cyt. c, oxygen-consumption turnover of purified CytcO against added yeast cyt. c, no ATP", "setting": "[2]", "value": 1.3, "unit": "µM"},
      {"measurement": "Km^2 (high Km) for cyt. c, oxygen-consumption turnover of purified CytcO against added yeast cyt. c, no ATP", "setting": "[2]", "value": 20, "unit": "µM"},
      {"measurement": "single Km for cyt. c, oxygen-consumption turnover of purified CytcO against added yeast cyt. c, with 5 mM ATP", "setting": "[2]", "value": 8.6, "unit": "µM"}
    ]},
    {"molecule": "Nc1ncnc2c1ncn2[C@@H]1O[C@H](COP(=O)(O)OP(=O)(O)OP(=O)(O)O)[C@@H](O)[C@H]1O", "note": "[ATP]", "values": [
      {"measurement": "Kd", "setting": "Cox13Δ-CytcO", "value": "ATP binds less tight (with tentative Kd in the mM range"},
      {"measurement": "Kd", "setting": "Cox13", "value": "15 ± 2", "unit": "mM"}
    ]},
    {"molecule": "Nc1ncnc2c1ncn2[C@@H]1O[C@H](COP(=O)(O)OP(=O)(O)O)[C@@H](O)[C@H]1O", "note": "[ADP]", "values": [
      {"measurement": "Kd", "setting": "Cox13", "value": "17 ± 2", "unit": "mM"}
    ]},
    {"molecule": "B1", "values": [
      {"measurement": "stoichiometry N", "setting": "[3]", "value": 2}
    ]}
  ]
}
